Laboratory results published in article PMC7051184 (2020).

Molecular target: 6His-S-Importin β(1-876), full-length WT human importin β (human, UniProt Q14974 1-876)
Assay: FRET; displacement of importin β-bound Rango

6His-S-Importin β(1-876), full-length WT human importin β, sequence (Q14974 whole entry): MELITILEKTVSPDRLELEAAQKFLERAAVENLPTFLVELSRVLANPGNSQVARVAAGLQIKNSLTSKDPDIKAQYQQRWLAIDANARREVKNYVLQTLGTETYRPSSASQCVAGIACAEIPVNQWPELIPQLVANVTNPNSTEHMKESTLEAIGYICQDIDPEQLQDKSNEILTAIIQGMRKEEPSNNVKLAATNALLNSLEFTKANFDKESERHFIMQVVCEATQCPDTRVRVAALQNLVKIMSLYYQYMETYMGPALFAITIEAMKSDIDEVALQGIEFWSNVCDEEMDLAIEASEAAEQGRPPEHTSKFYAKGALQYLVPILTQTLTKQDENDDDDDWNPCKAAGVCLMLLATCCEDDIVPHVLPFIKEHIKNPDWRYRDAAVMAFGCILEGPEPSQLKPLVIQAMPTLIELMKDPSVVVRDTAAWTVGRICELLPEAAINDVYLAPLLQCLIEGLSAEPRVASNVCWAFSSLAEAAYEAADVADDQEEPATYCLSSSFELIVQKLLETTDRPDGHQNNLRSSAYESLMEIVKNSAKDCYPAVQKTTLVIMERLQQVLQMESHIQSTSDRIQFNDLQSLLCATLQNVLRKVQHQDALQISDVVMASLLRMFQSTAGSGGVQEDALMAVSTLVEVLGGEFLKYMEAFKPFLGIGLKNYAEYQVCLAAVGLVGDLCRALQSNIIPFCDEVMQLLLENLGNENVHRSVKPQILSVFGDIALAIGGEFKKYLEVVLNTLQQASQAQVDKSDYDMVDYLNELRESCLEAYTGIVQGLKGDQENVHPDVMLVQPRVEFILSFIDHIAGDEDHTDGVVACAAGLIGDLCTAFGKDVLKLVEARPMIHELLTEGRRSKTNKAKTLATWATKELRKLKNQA

Question: With PRPRPRPRPRPRPRPRPRPRKC as the binder, how does the Kd read?
Answer: 8.2 nM
